# Data reported in patent US20230272073A1 (AVA LIFESCIENCE, published 2023).
# Target: T1, soluble recombinant version of the IGLV3-21^R110-harboring B-cell receptor, produced as monomeric human IgM (human)
# T1 construct: 170.5 kDa, made by transient expression in 293-HEK cells; It was the analyte in solution in BLI; also called soluble IGLV3-21^R110 B-cell receptor; soluble BCR-fragment
# Test: BLI (Octet)
# Method: Kinetic assays were performed by first immobilizing the anti IGLV3-21^R110 antibodies onto biosensors through an indirect capturing reagent, anti-human IgG Fc antibody. Anti IGLV3-21^R110 antibodies were loaded at a concentration of 0.01875 μg/ml to generate an anti IGLV3-21^R110 antibody capture level of between 0.30 and 0.34 nm. […] The anti IGLV3-21^R110 antibody capture biosensors were then submerged in wells containing the different concentrations of the soluble BCR-fragment for 900 seconds (association stage) followed by a dissociation step of 1200 seconds in running buffer. Steps were performed at a constant shake speed of 1000 rpm. All reagents were used as described by the manufacturer. Sensorgrams were generated after double reference correction (buffer and blank sensors) to compensate for both the natural dissociation of the capture anti IGLV3-21^R110 antibody and also non-specific binding of the soluble BCR-fragment to the sensor surface. […] (KD) were calculated based on the ratio of association (kₐ) and dissociation rate (kd) constants, obtained by fitting sensorgrams with a first order 1:1 binding model using the Fortebio Data Analysis software (Satorius).
# For the KD values of all humanized antibodies, see Table 3.
# T1 sequence (heavy, as listed by the source limits assumed, chain 1 of 2): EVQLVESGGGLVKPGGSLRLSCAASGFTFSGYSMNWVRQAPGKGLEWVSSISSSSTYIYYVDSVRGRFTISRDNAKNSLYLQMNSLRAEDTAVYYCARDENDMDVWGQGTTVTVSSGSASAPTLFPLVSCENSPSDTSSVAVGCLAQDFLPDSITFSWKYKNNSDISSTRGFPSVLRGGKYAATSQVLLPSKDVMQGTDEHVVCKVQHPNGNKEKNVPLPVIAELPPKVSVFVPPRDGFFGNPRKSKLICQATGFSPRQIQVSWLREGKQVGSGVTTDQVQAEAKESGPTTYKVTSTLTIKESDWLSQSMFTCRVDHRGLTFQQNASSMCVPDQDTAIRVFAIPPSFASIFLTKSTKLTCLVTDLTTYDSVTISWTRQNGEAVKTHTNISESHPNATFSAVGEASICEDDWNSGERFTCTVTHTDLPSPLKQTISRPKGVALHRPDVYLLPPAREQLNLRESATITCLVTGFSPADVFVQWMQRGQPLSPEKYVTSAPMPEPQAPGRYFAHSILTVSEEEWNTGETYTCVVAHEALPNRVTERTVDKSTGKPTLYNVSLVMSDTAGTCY
# T1 sequence (light, as listed by the source limits assumed, chain 2 of 2): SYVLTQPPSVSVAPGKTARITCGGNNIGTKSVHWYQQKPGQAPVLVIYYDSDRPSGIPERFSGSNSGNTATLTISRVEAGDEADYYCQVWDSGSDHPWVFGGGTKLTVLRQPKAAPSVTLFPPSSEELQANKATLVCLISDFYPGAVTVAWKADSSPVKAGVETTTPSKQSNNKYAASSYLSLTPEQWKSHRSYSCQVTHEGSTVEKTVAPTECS
binder,measurement,value
"HC7-LC6 (antibody, human IgG1, kappa, V domains shown, Humanized antibody, human IgG1 / kappa) VH: QVQLQESGPGLVKPSETLSLTCTVSGFSLTSYGIHWIRQSPGRGLEWIGVIWRGGGTDSNAAFMSRITISRDTSKTQVSLKLGSVTAADTAIYYCARSRYDEEESMNYWGQGTSVTVSS VL: EIVLTQSPSSLSASVGDSVTITCRASGNIHSYLAWYQQKPGKAPKLLIYNAKTLADGVPSRFSGSGSGTQYTLTISSLQPEDFATYYCQHFWNTPPTFGAGTKLELKR",fold of dissociation constant relative to chimeric antibody HC0-LC0,≤ 2 fold
